# Experimental data taken from US8435522 (Teva, dated 2013).
# T1: CXCR3 (human cell surface protein CD183) (human, UniProt P49682 1-368)
# T1 sequence (looked up): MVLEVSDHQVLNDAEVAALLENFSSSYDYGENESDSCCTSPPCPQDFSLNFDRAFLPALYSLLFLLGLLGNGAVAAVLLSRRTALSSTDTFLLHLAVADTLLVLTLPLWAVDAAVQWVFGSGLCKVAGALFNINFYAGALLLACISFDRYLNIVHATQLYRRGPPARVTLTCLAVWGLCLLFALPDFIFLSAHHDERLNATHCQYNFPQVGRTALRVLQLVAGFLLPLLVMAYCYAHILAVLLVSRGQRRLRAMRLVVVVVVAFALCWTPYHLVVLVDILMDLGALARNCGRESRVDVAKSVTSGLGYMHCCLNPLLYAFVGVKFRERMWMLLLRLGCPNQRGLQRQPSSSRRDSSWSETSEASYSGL
# T2: rat CXCR3 (on polarized rat Th1 cells) (rat, UniProt Q9JII9 1-367)
# T2 construct: whole, on cells; the target meant is rat CXCR3
# T2 sequence (looked up): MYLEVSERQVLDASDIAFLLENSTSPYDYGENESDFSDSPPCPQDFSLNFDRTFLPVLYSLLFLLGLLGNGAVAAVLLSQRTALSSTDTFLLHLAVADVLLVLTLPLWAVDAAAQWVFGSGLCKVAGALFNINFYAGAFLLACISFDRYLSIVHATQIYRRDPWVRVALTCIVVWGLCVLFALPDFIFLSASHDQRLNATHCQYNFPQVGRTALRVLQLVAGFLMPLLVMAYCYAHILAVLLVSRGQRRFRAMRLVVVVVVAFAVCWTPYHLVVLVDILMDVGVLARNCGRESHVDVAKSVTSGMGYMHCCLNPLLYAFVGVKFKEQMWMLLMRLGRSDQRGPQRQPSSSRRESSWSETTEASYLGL
# T3: CXCR3 (human cell surface protein CD183) (human, UniProt P49682 1-368)
# T3 chain: T1 sequence (looked up)
# B1: Mouse anti-CXCR3 V44D7 (antibody, V domains shown)
# VH: EVMLVESGGGLVKPGGSLKLSCAASGFTFSNYAMSWVRQTPEKRLEWVATISSGGGYTYYPDSLKGRFTISRDNAKNTLFLQMSSLRSEDTAVYYCVRHGAPMTTVITYAPYYFDYWGQGTTLTVSS
# VL: ENVLTQSPAIMSASLGEKVTMNCRASSSVKYMYWYQQKSDASPKLWIYYTSNLAPGVPARFSGSGSGNSYSLTISSMEGEDAATYYCQQFTTSPYTFGGGTKLEIK
# notes: also called V44D7A; Ab#5
# B2: Humanized Ab2 H5K7 (antibody, V domains shown)
# VH: EVQLLESGGGLVQPGGSLRLSCAASGFTFSNYAMSWVRQAPGKGLEWVSTISSGGGYTYYPDSLKGRFTISRDNSKNTLYLQMNSLRAEDTAVYYCAKHGAPMTTVITYAPYYFYYWGQGTTVTVSS
# VL: ENVLTQSPAFLSVTPGEKVTITCRASSSVKYMYWYQQKPDQAPKLWIYYTSNLAPGVPSRFSGSGSGNDYTFTISSLEAEDAATYYCQQFTTSPYTFGGGTKLEIK
# notes: IgG1 backbone, human kappa
# B3: CXCL11 (I-TAC, interferon-inducible T cell a-chemoattractant) (ligand)
# chain: FPMFKRGRCLCIGPGVKAVKVADIEKASIMYPSNNCDKIEVIITLKENKGQRCLNPKSKQARLIIKKVERKNF
# modifications: 125I label, site not stated
# Tests used:
# [1] = molecular target: T1, CXCR3 (human cell surface protein CD183); assay: cell-based or functional assay
# [2] = molecular target: T1, CXCR3 (human cell surface protein CD183); assay: cell-based or functional assay; remark: listed apart in the source
# [3] = molecular target: T2, rat CXCR3 (on polarized rat Th1 cells); assay: FACS on polarized rat Th1 cells
# Procedure: FACS analysis was performed to determine reactivity of mouse CXCR3mAb to polarized rat Th1 cells. Only rabbit anti-mouse CXCR3 Ab bound to rat Th1 cells. […] As a control, mouse anti-CXCR3mAb binding to human Th1 cells is also shown (bottom panel).
# The parental mouse CXCR3mAb was tested for binding to polarized rat Th1 cells by FACS. Only rabbit anti-mouse CXCR3 Ab (positive control) bound to rat Th1 cells.
# [4] = molecular target: T1, CXCR3 (human cell surface protein CD183); assay: competition with Eu-IP-10 binding to Th1 cells
# [5] = molecular target: T1, CXCR3 (human cell surface protein CD183); assay: displacement of 125I-I-Tac binding to Th1 cells
# [6] = molecular target: T1, CXCR3 (human cell surface protein CD183); assay: displacement of 125I-IP-10 binding to Th1 cells
# Procedure: Figure 14: FIG. 14 illustrates expression of CXCR3 on Th1 cells. Th1 and Th2 cells were generated from cord blood and CXCR3 and CCR4 expression were determined by FACS. CXCR3 was present only Th1 cells. […] IC$50$ values were calculated using Prizm software. Lead candidates were highlighted in green. […] IC$50$ values were calculated using Prizm software. Lead candidates were highlighted in green.
# [7] = molecular target: T1, CXCR3 (human cell surface protein CD183); assay: competition with Eu-V44 (Eu-labeled mouse CXCR3mAb) binding to Th1 cells
# Procedure: Th1 cells were incubated in a 96 well plate with Eu-CXCR3mAb in the absence or presence of various concentrations humanized CXCRmAbs. After incubation (1 hr at RT), cell bound Eu-CXCR3mAb was separated from free Europium by washing three times and the plate was read using Vctor2 fluorometer. IC$50$ values were calculated using Prizm software. Ab1 has a heavy chain sequence of humanized anti-CXCR3 V44D7 VH Lead #5 amino acid and a light chain sequence of humanized anti-CXCR3 V44D7 VK Lead #1 (see Informal Sequence Listing) in an IgG1 backbone. Ab2 has a heavy chain sequence of humanized anti-CXCR3 V44D7 VH Lead #5 and a light chain sequence of humanized anti-CXCR3 V44D7 VK Lead #7 (see Informal Sequence Listing) in an IgG1 backbone. Humanized Ab (IgG4) has a heavy chain sequence of humanized anti-CXCR3 V44D7 VH Lead #5 and a light chain sequence of the original mouse anti-CXCR3 V44D7 VK in an IgG4 backbone. Figure 22: FIG. 22 illustrates inhibition Eu-CXC10 by humanized CXCR3Abs. […] After incubation (1 hr at RT), cell bound Eu-CXCL10 was separated from free Europium by washing three times and the plate was read using Vctor2 fluorometer. IC$50$ values were calculated using Prizm software. […] After 2 hr incubation at 37° C., cells migrated to the bottom wells were determined by cell titer glo method (Promega).
# [8] = molecular target: T3, CXCR3 (human cell surface protein CD183); assay: 125I-CXCL11 binding inhibition on Th1 cells
Binder,"Inhibition of IP-10-induced Th1 chemotaxis, IC50 [1]",Chemotaxis IC50 [2],binding result [3],IC50 [4],IC50 [5],IC50 [6],IC50 [7],IC50 [8]
B1,0.035 µg/mL,0.09 nM,no binding,0.14 nM,0.1 nM,0.13 nM,0.29 nM,
B2,,0.28 nM,,0.35 nM,,,1.82 nM,
B3,,,,,,,,0.01 nM
